Measurements published in patent publication WO2012003472A1 (dated 2012).

T1: rhNotch2-Fc (human, UniProt Q04721 26-530)
T1 construct: Bought protein; also called human Notch2 protein; R&D Cat. No. 3735-NT-050; not shown: Fc part
T1 sequence (looked up): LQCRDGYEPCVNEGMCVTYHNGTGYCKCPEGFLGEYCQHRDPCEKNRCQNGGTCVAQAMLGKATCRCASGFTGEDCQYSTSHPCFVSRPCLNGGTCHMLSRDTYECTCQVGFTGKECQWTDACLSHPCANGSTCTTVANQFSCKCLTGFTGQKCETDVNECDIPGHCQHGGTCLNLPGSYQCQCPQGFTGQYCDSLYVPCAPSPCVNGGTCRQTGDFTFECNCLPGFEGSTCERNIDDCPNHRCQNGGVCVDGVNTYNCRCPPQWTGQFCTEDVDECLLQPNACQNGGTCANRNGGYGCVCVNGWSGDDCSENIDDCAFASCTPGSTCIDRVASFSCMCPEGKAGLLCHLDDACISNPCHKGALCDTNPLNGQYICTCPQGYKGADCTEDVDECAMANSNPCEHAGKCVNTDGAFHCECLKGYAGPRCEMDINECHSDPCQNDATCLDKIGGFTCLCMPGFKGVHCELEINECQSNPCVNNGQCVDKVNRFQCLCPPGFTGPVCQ

T2: rhNotch3-Fc (human, UniProt Q9UM47 40-467)
T2 construct: Bought protein; also called human Notch3 protein; R&D Cat. No. 1559-NT-050; not shown: Fc part
T2 sequence (looked up): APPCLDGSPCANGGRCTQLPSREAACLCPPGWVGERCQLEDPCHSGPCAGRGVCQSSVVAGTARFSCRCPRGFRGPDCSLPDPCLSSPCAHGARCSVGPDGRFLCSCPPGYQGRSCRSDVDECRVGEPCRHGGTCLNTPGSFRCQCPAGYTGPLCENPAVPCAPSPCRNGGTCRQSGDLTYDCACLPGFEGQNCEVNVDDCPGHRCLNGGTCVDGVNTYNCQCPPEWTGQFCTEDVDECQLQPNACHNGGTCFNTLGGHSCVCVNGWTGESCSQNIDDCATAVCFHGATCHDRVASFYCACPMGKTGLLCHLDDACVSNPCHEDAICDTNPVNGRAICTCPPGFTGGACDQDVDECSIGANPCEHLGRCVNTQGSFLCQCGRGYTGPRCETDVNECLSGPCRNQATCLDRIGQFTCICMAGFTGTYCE


How the values were obtained:
[1] = target: human Notch1 displayed on the surfaces of cells (human, UniProt P46531 19-2555); assay: cell-based or functional assay
Sequence of human Notch1 displayed on the surfaces of cells (P46531 19-2555): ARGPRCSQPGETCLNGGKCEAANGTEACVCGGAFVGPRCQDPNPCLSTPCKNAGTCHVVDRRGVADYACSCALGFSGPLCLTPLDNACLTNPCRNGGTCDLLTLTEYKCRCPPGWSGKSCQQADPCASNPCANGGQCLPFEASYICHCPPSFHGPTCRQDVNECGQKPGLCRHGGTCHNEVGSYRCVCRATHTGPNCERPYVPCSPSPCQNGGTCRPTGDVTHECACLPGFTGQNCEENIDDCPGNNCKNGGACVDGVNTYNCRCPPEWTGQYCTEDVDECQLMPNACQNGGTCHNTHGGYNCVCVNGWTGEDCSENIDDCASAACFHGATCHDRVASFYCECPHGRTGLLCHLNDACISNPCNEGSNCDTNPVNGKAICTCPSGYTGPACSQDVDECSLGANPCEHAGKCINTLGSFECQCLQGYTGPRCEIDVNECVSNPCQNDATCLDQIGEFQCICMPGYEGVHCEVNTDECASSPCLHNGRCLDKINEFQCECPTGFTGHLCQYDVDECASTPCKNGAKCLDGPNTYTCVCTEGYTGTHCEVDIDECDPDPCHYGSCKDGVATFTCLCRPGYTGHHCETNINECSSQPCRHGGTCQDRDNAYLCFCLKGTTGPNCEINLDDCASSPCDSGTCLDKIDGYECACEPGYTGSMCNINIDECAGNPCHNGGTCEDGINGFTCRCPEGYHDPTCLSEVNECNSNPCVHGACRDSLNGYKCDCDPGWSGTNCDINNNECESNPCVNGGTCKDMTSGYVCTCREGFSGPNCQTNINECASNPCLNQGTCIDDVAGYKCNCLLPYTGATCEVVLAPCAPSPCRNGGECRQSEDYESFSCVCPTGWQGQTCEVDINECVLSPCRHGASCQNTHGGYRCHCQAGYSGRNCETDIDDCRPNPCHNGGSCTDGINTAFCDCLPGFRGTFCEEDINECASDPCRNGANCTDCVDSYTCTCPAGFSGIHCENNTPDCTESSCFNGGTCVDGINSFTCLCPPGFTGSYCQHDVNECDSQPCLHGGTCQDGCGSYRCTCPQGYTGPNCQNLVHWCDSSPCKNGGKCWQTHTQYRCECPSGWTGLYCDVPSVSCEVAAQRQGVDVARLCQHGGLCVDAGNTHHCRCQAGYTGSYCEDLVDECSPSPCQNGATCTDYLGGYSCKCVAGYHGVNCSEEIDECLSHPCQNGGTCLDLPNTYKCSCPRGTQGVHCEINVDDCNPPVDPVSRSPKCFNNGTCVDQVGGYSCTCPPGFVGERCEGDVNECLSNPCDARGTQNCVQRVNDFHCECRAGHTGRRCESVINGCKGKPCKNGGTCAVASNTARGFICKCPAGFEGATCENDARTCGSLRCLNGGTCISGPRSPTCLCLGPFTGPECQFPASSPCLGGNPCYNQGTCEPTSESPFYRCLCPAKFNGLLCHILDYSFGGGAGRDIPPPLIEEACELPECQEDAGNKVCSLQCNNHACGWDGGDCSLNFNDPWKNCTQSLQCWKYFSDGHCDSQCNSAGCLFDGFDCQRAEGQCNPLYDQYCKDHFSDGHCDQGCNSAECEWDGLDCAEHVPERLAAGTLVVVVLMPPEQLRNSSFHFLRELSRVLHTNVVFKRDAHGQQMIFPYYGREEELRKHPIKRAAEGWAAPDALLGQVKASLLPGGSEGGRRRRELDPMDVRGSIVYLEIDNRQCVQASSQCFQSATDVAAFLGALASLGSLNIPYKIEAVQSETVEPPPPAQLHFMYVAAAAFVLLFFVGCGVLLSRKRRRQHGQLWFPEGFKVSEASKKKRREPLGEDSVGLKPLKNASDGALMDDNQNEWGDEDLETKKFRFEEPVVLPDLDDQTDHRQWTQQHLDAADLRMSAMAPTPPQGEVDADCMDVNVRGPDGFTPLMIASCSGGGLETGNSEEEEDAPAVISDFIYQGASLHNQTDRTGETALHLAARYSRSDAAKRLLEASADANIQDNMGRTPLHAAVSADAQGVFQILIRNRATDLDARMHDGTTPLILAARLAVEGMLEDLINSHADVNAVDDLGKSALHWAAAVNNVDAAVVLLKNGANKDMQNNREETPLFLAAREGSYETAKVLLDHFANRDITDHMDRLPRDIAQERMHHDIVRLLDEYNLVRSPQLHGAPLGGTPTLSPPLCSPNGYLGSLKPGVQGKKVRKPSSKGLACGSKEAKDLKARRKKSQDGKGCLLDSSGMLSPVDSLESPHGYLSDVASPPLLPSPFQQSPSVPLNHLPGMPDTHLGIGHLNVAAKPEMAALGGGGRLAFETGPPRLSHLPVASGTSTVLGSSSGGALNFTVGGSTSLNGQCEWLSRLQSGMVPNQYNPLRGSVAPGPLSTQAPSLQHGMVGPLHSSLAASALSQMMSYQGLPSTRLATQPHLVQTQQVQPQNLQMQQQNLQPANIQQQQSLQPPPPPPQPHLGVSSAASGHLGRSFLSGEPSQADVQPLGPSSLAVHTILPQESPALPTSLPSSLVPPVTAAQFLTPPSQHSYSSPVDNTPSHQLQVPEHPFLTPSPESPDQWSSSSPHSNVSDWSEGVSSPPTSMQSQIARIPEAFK

[2] = target: T3, recombinant human Notch 1/Fc fusion protein (rhNotch1-Fc) (human, UniProt P46531 19-526); assay: SPR (Biacore T100), antibody captured on anti-mouse IgG, rhNotch1-Fc as analyte, 25°C
T3 construct: Bought protein; also called rhNotchl-Fc; R&D Systems Cat. No. 3647-TK-050; not shown: Fc part

rhNotch2-Fc = target: T1, rhNotch2-Fc; assay: BLI (Octet QK), Notch-Fc on anti-human-Fc sensors
rhNotch3-Fc = target: T2, rhNotch3-Fc; assay: BLI (Octet QK), Notch-Fc on anti-human-Fc sensors
[3] = target: T4, human Notch3 displayed on the surfaces of cells (human, UniProt Q9UM47 40-2321); assay: electrochemiluminescence (Meso Scale Discovery) on CHO FlpIn cells
T4 construct: whole, on cells; also called human Notch3 on CHO FlpIn cells; Notch3-dependent reporter cells

[4] = target: T5, human Notch4 displayed on the surfaces of cells (human, UniProt Q99466 24-2003); assay: as above
T5 construct: whole, on cells; also called human Notch4 on CHO FlpIn cells
T5 sequence (Q99466 24-2003): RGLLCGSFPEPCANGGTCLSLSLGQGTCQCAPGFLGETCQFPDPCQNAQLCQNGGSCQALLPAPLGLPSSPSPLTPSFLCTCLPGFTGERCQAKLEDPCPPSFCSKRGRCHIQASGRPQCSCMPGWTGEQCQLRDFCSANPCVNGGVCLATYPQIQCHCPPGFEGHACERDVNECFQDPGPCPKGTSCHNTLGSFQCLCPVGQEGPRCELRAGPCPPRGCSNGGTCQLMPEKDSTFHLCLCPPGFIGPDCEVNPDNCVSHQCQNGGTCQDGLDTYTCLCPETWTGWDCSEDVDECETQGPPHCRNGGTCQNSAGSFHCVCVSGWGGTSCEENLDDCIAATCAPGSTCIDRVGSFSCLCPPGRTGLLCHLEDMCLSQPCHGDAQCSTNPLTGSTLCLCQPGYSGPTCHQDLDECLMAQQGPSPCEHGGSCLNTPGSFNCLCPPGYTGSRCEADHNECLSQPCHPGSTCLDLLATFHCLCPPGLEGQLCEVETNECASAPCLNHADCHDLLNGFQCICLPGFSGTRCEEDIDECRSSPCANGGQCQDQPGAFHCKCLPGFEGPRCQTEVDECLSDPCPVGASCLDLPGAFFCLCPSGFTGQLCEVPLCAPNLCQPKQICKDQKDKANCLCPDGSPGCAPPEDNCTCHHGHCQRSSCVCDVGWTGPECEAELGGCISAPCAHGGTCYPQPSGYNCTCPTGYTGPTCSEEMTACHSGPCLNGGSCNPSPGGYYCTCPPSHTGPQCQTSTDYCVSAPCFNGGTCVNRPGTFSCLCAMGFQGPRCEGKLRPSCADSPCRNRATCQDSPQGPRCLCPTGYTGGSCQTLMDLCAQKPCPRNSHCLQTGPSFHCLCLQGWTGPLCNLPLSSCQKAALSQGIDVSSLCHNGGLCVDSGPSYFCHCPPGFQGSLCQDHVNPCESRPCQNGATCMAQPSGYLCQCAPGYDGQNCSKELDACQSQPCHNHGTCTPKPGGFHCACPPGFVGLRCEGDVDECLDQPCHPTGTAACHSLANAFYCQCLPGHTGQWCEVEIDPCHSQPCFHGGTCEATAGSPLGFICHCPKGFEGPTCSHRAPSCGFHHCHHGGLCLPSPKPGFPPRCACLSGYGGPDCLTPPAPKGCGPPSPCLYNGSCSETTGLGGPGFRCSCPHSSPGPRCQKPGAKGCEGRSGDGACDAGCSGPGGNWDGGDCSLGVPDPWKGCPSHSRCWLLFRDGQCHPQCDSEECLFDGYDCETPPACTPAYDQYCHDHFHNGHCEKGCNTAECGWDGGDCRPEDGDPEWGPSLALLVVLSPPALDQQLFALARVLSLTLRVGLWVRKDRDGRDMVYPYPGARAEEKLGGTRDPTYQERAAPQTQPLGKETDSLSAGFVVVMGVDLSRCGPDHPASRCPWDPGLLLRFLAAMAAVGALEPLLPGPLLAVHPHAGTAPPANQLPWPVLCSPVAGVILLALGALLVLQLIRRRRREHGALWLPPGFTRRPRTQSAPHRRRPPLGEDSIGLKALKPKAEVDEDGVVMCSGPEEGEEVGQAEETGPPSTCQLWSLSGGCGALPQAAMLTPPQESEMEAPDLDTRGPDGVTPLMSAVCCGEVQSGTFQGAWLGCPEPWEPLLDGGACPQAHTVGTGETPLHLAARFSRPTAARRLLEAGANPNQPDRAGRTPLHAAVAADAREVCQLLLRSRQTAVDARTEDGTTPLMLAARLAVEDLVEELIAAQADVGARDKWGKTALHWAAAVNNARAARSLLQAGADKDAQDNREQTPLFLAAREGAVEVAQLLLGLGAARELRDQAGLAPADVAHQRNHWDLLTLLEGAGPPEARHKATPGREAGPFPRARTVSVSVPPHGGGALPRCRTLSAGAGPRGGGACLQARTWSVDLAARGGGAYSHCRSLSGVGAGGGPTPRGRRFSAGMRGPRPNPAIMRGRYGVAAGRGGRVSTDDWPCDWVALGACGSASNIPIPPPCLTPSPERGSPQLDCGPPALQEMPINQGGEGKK

[5] = target: T6, human Notch2 displayed on the surfaces of cells (human, UniProt Q04721 26-2471); assay: as above
T6 construct: whole, on cells; also called human Notch2 on CHO FlpIn cells; Notch2-dependent reporter cells

| EC50, Inhibition of Notch 1 Signaling, DLL1 (row printed 'DLI A') [1] [nM] | EC50, Inhibition of Notch 1 Signaling, DLL4 (row printed 'DLI A') [1] [nM] | EC50, Inhibition of Notch 1 Signaling, Jag 1 [1] [nM] | EC50, Inhibition of Notch 1 Signaling, Jag 2 [1] [nM] | Kd [2] [nM] | binding result (rhNotch2-Fc) | binding result (rhNotch3-Fc) | binding result [3] | binding result [4] | binding result [5] | Binder |
| --- | --- | --- | --- | --- | --- | --- | --- | --- | --- | --- |
| 0.1 | 0.02 | 0.9 | 0.5 | – | – | – | – | – | – | Hu2E6-62 (antibody, human IgG1, kappa, V domains shown) VH: EVQLVQSGAEVAKPGASVKMSCKASGYTFTSYWMHWVKQAPGQGLEWIGAVYPRNNDATYNQKFKGKATLTADTSTSTAYMELRSLRSDDTAVYYCLYFNYNFDYWGQGTLLTVSS VL: EIVLTQSPATMSASPGERVTMSCRASSSVSYMHWYQQKPGQSPRLLIYDTSNRASGVPAHFSGSGSGTDYTLTISSMEPEDFATYYCQQWSSYPYTFGQGTKLEIKR |
| – | – | – | – | ≤ 10 | – | – | – | – | – | antibody 2D11 (antibody, mouse IgG1, kappa, V domains shown, Mouse monoclonal from hybridoma, IgG1 kappa) VH: EVQLQQSGAELARPGASVKMSCKASGYTFTRYWMHWVKQRPGQGLEWIGAIYPGNSDTTYNQKFKGKAKLTAVTSASTAYMELSSLTNEDSAVYYCIYPYDYLDYWGQGTTLTVSS VL: QIVLTQSPAIMSASPGEKVTMTCSASSSLSYMHWYQQKPGTSPKRWVYDTSKLASGVPARFSGSGSGTSYSLTISSMEAEDAATYYCHQRSSYPYTFGGGTKLEIKR |
| 0.2 | 0.1 | 0.4 | 0.1 | ≤ 10 | – | – | – | – | – | antibody 2E6 (antibody, mouse IgG1, kappa, V domains shown, Mouse monoclonal from hybridoma, IgG1 kappa; also called 2E06; mu2E6) VH: EVQLQQSGAELARPGASVKMSCKASGYTFTSYWMHWVKQRPGQGLEWIGAVYPRNNDTTYNQKFKGKAKLTAVTSASTAYMALSSLTNEDSAVYYCLYFNYNFDYWGQGTTLTVSS VL: QIVLTQSPAIMSASPGEKVTMTCSASSSVSYMHWYQQKPGSSPRLLIYDTSNLASGVPVHFSGSGSGTSYSLTIIRMEAEDAATYYCQQWSSYPYTFGGGTKLEIKR |
| – | – | – | – | ≤ 10 | no binding (tested: 50 μg/ml antibody) | no binding (tested: 50 μg/ml antibody) | no binding (tested: 5 μg/ml antibody) | no binding (tested: 5 μg/ml antibody) | no binding (tested: 5 μg/ml antibody) | antibody 2A11 (antibody, mouse IgG2b, kappa, V domains shown, Mouse monoclonal from hybridoma, IgG2b kappa) VH: QVQLQQSGPELVKPGASVKISCKASGYAFSSSWMNWVKQRPGKGLEWIGRIYPGDGDTNYNGKFKGKATLTADKSSSTAYMQLSSLTSEDSAVYFCARSGSIYYGNHGDYFDYWGQGTTLTVSS VL: QIVLTQSPAIMSASPGEKVTMTCSASSSVSYMHWYQQKPGSSPRLLIYDTSNLASGVPVHFSGSGSGTSYSLTIIRMEAEDAATYYCQQWSSYPYTFGGGTKLEIKR |
